According to PMC4824898 (2016):

Molecular target: rabbit skeletal muscle actin (Oryctolagus cuniculus (Rabbit), UniProt P68135)
Assay: actin co-sedimentation; polymerised (filamentous) actin

B1: actin-binding domain (ABD) of S. pombe α-actinin (protein)
chain: MQANQWQSVQNRTFTKWFNTKLSSRDLPSVFDLRKDLSDGILLIQLLEIIGDENLGRYNRNPRMRVHRLENVNKALEYIKSKGMPLTNIGPADIVDGNLKLILGLIWTLILRFTIADINEEGLTAKEGLLLWCQRKTANYHPEVDVQDFTRSWTNGLAFCALIHQHRPDLLDYNKLDKKNHRANMQLAFDIAQKSIGIPRLIEVEDVCDVDRPDERSIMTYVAEYFHAFSTLDK
binding result: no binding
